Positions of bridges follow the written chain, without caps; N, C: chain ends. No end group written: not given here.

The target in the experiment is guanylate cyclase receptor (on human T84 colon carcinoma cells) (human). The experiment can be described thus: cell-based or functional assay.
Turning to NEECELCVNVACTGCL (disulfide 4-12, 7-15) [[Glu^2, Glu3]-UG (SP302)], the cGMP Level (pmol/well), T84 cells, 1 micromolar peptide for 30 minutes came out at 225 pmol/well. As for NDECELCVNVACTGCL (disulfide 4-12, 7-15) [[Glu^3]-UG (SP304)], the figure is 315 pmol/well; as for ECELCVNVACTGCL (disulfide 2-10, 5-13) [SP316], 275 pmol/well; as for NEDCELCVNVACTGCL (disulfide 4-12, 7-15) [[Glu^2]-UG (SP303)], 195 pmol/well.

For the molecule NDDCELCVNVACTGCL (disulfide 4-12, 7-15) [human uroguanylin, bicyclo [4,12; 7,15] (SP301)], the cGMP Level (pmol/well), T84 cells, 1 micromolar peptide for 30 minutes was found to be 205 pmol/well.
